B1: Twister Ribozyme (parent)
chain: AACACUGCCAAUGCCGGUCCCAAGCCCGGAUAAAAGUGGAGGGGGCGG

Variants of B1 are the subject of this series. Put plainly: self-cleavage, relative activity (ratio to wild type); higher = more cleavage; co-transcriptional.
On to C3U C20A, for which the self-cleavage came to 0.07.

C25A G39U: the self-cleavage turned out to be 0.115.

Consider C9U C27A, for which the self-cleavage was 0.064.

For the variant G29A G41C, the self-cleavage is 0.22.

Regarding A35G G47C, the self-cleavage was determined as 0.562.

As to U12C G28A, the self-cleavage was 0.829.

For the variant G13C A23C, the self-cleavage turned out to be 0.0801.

For the variant C5G A10G, the self-cleavage is 1.17.

As to G16A G44U, the self-cleavage was 1.

Regarding G42U G47C, the self-cleavage stood at 0.224.

In the case of C19U C46U, the self-cleavage was determined as 0.907.

For G7C A32C, the self-cleavage stood at 0.0784.

A4U U6C: the self-cleavage came out at 0.0522.

As to G17U G28A, the self-cleavage was found to be 0.11.

For the variant A34U G39A, the self-cleavage was found to be 0.199.

As to G17U C26G, the self-cleavage came to 0.637.

Turning to G7U C14U, the self-cleavage came out at 0.0997.

As for A4C G29C, the self-cleavage was 0.0879.

For the variant A23C G28U, the self-cleavage turned out to be 0.161.

Regarding C19G A33U, the self-cleavage amounted to 0.187.

On to A1C G42A, for which the self-cleavage stood at 0.16.

With G28A G39C, the self-cleavage was determined as 0.154.

U31G G39A: the self-cleavage was determined as 0.623.

On to G7U A30U, for which the self-cleavage is 0.0836.

For A11G G24C, the self-cleavage came to 0.0551.

For the variant C9A U12C, the self-cleavage was 0.795.

For the variant C8U C20G, the self-cleavage came to 0.0649.

For A33G G44A, the self-cleavage was 0.79.

Regarding C14A G38C, the self-cleavage is 0.861.

Regarding U6A A11U, the self-cleavage turned out to be 1.03.

With C14U G41U, the self-cleavage was found to be 0.719.

On to U12G C19A, for which the self-cleavage stood at 0.601.

Turning to C9G C27A, the self-cleavage was 0.098.

For G17A A30G, the self-cleavage came to 0.615.

For U12C G24C, the self-cleavage was 0.0606.

As for C15U A30U, the self-cleavage came out at 0.925.

Turning to U12G U37A, the self-cleavage was 0.576.

Turning to C14U G29U, the self-cleavage came to 1.09.

C21U G38C: the self-cleavage was determined as 0.0755.

For C21G G41A, the self-cleavage is 0.159.

For the variant G36C, the self-cleavage was determined as 0.691.

Turning to A30U A35G, the self-cleavage was 0.772.

As to A1G G39A, the self-cleavage was 0.206.

In the case of A1G G39C, the self-cleavage was 0.122.

For C15G U31G, the self-cleavage came out at 0.153.

On to A33C G45C, for which the self-cleavage was determined as 0.531.

As to U6G A33U, the self-cleavage worked out at 0.234.

Consider C26G G38A, for which the self-cleavage stood at 0.0967.

As to C14G G42A, the self-cleavage was found to be 0.0786.

Turning to U12C G44A, the self-cleavage was determined as 0.852.

On to C8U G16C, for which the self-cleavage was 0.199.

For the variant C9G G41C, the self-cleavage is 0.145.

As for C15A A32C, the self-cleavage amounted to 0.529.

Consider A4G G38U, for which the self-cleavage worked out at 0.947.

Consider A4G G38C, for which the self-cleavage was found to be 0.918.

With A4G C15G, the self-cleavage stood at 0.0751.

Consider G36A U37G, for which the self-cleavage is 0.32.

Turning to C20A G36C, the self-cleavage was determined as 0.0494.

With A1C C27A, the self-cleavage amounted to 0.192.

C8G G41A: the self-cleavage was 0.179.

In the case of C15G G41A, the self-cleavage was found to be 0.112.

For U31C G38A, the self-cleavage worked out at 0.81.

In the case of G29C G43C, the self-cleavage amounted to 0.118.

As to G29C G43A, the self-cleavage is 0.119.

With C21A A30C, the self-cleavage came out at 0.079.

With G7A A35U, the self-cleavage came to 0.546.

For G16C A30G, the self-cleavage is 0.31.

As for G28A G36A, the self-cleavage amounted to 0.397.

Consider A35G G48U, for which the self-cleavage was 0.882.

With G43C, the self-cleavage is 0.227.

Turning to G43A, the self-cleavage stood at 0.328.

As to A2U A30C, the self-cleavage came to 0.182.

As to C5G G47A, the self-cleavage was 0.547.

With U6A U18G, the self-cleavage was found to be 0.0743.

On to G29U G43U, for which the self-cleavage turned out to be 0.299.

On to A30G G41A, for which the self-cleavage is 0.666.

For C20G A23C, the self-cleavage was 0.118.

For the variant A1G A22G, the self-cleavage turned out to be 0.165.

For G17A C27U, the self-cleavage turned out to be 0.403.

In the case of C19U A32G, the self-cleavage is 0.855.

For A10U C25G, the self-cleavage was determined as 0.194.

A10U G47C: the self-cleavage amounted to 0.596.

For C26A A35U, the self-cleavage is 0.732.

For G24A C26A, the self-cleavage came to 0.123.

With A32U G47A, the self-cleavage is 0.883.

For C20U G41C, the self-cleavage was 0.133.

For A4U G24U, the self-cleavage is 0.0752.

On to A30U A40C, for which the self-cleavage came out at 0.2.

On to A30G G36A, for which the self-cleavage came out at 0.761.

As for A4G A10U, the self-cleavage was 1.04.

Consider A2G A32C, for which the self-cleavage came out at 0.414.

Consider G24U G36A, for which the self-cleavage worked out at 0.124.

As for U31G U37G, the self-cleavage was found to be 0.734.

Turning to U18G A32C, the self-cleavage is 0.0661.

For G28C A35G, the self-cleavage is 0.596.

With G16U C27A, the self-cleavage worked out at 0.908.

Turning to C19U G42C, the self-cleavage came out at 0.221.

Consider A11G A34G, for which the self-cleavage came out at 0.819.

C5A G16C: the self-cleavage was found to be 0.098.

For U12A C15U, the self-cleavage came to 1.1.

Take U31G G38A: the self-cleavage turned out to be 0.937.

With A22G A34U, the self-cleavage was found to be 0.096.

Regarding A33C A35G, the self-cleavage worked out at 0.707.

With G16U A22C, the self-cleavage worked out at 0.925.

On to U18C C19U, for which the self-cleavage stood at 0.247.

With A23G G41C, the self-cleavage is 0.138.

As to A34G G42C, the self-cleavage was 0.185.

Take G38A A40C: the self-cleavage is 0.129.

On to A1G A40C, for which the self-cleavage is 0.218.

Turning to G16U U31G, the self-cleavage is 1.04.

With A40G G45A, the self-cleavage amounted to 0.146.

Turning to C9A A30C, the self-cleavage turned out to be 0.608.

Regarding A4U G17U, the self-cleavage turned out to be 0.0471.

Take A40G C46G: the self-cleavage amounted to 0.184.

On to C27A A40C, for which the self-cleavage is 0.155.

Take A32U C46G: the self-cleavage was determined as 0.973.

As to A30C G47C, the self-cleavage came out at 0.17.

As for G36C G47U, the self-cleavage is 0.376.

Consider G7A G38C, for which the self-cleavage is 0.348.

Consider G7U G16U, for which the self-cleavage was 0.0559.

For the variant G24A G47C, the self-cleavage is 0.11.

A2G U12C: the self-cleavage was found to be 0.316.

Take U31G A32U: the self-cleavage is 0.765.

For G16C C46A, the self-cleavage was 0.693.

C3A C19U: the self-cleavage stood at 0.153.

In the case of A10U C14U, the self-cleavage was 0.884.

On to A4G C26G, for which the self-cleavage worked out at 0.169.

Regarding A1U C20G, the self-cleavage worked out at 0.112.

On to G29U U37G, for which the self-cleavage came to 0.418.

As for C19U C26U, the self-cleavage came out at 0.0803.

For the variant C5A A23C, the self-cleavage was determined as 0.0937.

For the variant C27A A33C, the self-cleavage was determined as 0.245.

Take C20G C46A: the self-cleavage came out at 0.12.

Consider G38C A40U, for which the self-cleavage turned out to be 0.129.

For the variant C5G C46A, the self-cleavage stood at 0.776.

For G7C G16C, the self-cleavage worked out at 0.13.

On to C19A G29U, for which the self-cleavage is 0.207.

For the variant C19G G44A, the self-cleavage stood at 0.351.

Take A32U G41C: the self-cleavage worked out at 0.284.

As for C8A G13U, the self-cleavage stood at 0.261.

Turning to A10C C46G, the self-cleavage was 0.714.

Regarding C8U A40U, the self-cleavage came out at 0.17.

C14U G28C: the self-cleavage was 1.01.

Turning to A10G U12C, the self-cleavage is 0.847.

A35U G47U: the self-cleavage turned out to be 0.893.

On to C15G A33G, for which the self-cleavage amounted to 0.0911.

Take C8G U37C: the self-cleavage is 0.131.

In the case of C14A C25A, the self-cleavage was found to be 0.242.

Turning to C14A C25G, the self-cleavage was found to be 0.657.

On to G41C G42A, for which the self-cleavage is 0.125.

Regarding A22C G29C, the self-cleavage was 0.929.

With G13C G44A, the self-cleavage was 0.584.

As to U18C A34U, the self-cleavage came to 0.149.

C5A A35G: the self-cleavage is 0.328.

In the case of U31A C46A, the self-cleavage came to 0.816.

On to G28U G42C, for which the self-cleavage is 0.407.

As to C15U A32C, the self-cleavage was 0.678.

In the case of U6G G47U, the self-cleavage amounted to 0.151.

As for A10G G48A, the self-cleavage came out at 0.902.

Regarding A10U G16U, the self-cleavage was 0.802.

Consider C5G G43C, for which the self-cleavage amounted to 0.122.

Consider G16C C19U, for which the self-cleavage was 0.461.

On to C8G A23U, for which the self-cleavage worked out at 0.103.

Take G28C A40G: the self-cleavage was 0.188.

On to G7U C15A, for which the self-cleavage amounted to 0.0847.

For the variant A2U G41A, the self-cleavage was 0.111.

Consider U6C C8U, for which the self-cleavage came to 0.174.

The record behind these values is the RNAGym collection of RNA variant scans (doi:10.7554/elife.80360).
